Patent US8263074B2, “Fibroblast growth factor receptor-1 inhibitors and methods of treatment thereof” (ImClone LLC, priority 2003, dated 2012)

Experiments:
FGFR-1c = biological target: T1, FGFR-1c (Homo sapiens, UniProt P11362); experiment: BiaCore binding kinetics; settings: BiaCore biosensor; read-out: Binding Kinetic (Kd), FGFR-1c
T1 construct: purchased R&D Systems

FGFR-2b = biological target: T2, FGFR-2b (Homo sapiens, UniProt P21802); experiment: BiaCore binding kinetics; settings: BiaCore kinetic analysis
T2 construct: purchased R&D Systems

FGFR-2c = biological target: T3, FGFR-2c (Homo sapiens, UniProt P21802); experiment: BiaCore binding kinetics; settings: BiaCore kinetic analysis
T3 construct: purchased R&D Systems

FGFR-3c = biological target: T4, FGFR-3c (Homo sapiens, UniProt P22607); experiment: BiaCore binding kinetics; settings: BiaCore kinetic analysis
T4 construct: purchased R&D Systems

[1] = tested on: Human umbilical vascular endothelial cells (HUVECs); experiment: HUVEC proliferation assay (3H-thymidine); assay type: cell-based; settings: 3H-thymidine incorporation
Procedure: Human umbilical vascular endothelial cells (HUVECs) were seeded in 96-well tissue culture plates at a concentration of 5×10^4 cells/ml. After attachment, cells were quiesced in EMG-2 medium lacking EGF, VEGF and FGF-2 (Cambrex, East Rutherford, N.J.) for 24 hrs. Quiescent media in wells were aspirated and replaced with EMG-2 that contained all the growth factors mentioned above. Antibodies were serially diluted and added to the wells. Cells were incubated at 37° C. with 5% CO2 in a Muaire™ DH autoflow incubator (Cryostar Industries, Inc., White Hall, Pa.) for 48-72 hrs. Cell growth was determined by monitoring ^3H-thymidine incorporation using a 1450 Micorbeta liquid scintillation counter (Perkin Elmer, Gaithersburg, Md.).

human adipocytes = experiment: Adipocyte proliferation assay (3H-thymidine); assay type: cell-based; settings: 15 ng/ml FGF-2, 60 hrs
Procedure: Two-week-old (after induced differentiation) grade 2 human adipocytes were obtained from Zen-Bio Inc. (Research Triangle, N.C.), and were maintained in the shipping media in a 96-well tissue culture plate. To evaluate the effects of FGF-2 on the proliferation of adipocytes, recombinant FGF-2 (R&D systems) was serially diluted and added to the wells of the plate. The cells were allowed to grow in the incubator for 60 hrs, before the level of ^3H-thymidine incorporation was determined. To evaluate the effects of FR1-H7 on adipocytes proliferation, the antibody was serially diluted and added to the cells before addition of recombinant FGF-2 to a final concentration of 15 ng/ml. ^3H-thymidine incorporation was determined after 60 hrs of incubation.

[2] = Single-dose short-term study in female athymic nude mice: body and tissue weights, serum chemistry; assay type: in vivo
Procedure: Short-term effects of the FR1-H7 antibody on serum levels of insulin, leptin, glucose, and triglycerides were examined by injecting 4 mg/kg antibody or control vehicle into female athymic nude mice. Samples were collected and evaluated before treatment and 6, 24, and 48 hours after treatment. Alanine aminotransferase (ALT), […], blood urea nitrogen (BUN), total serum proteins, and serum albumin levels were measured using serum samples taken 48 hours after treatment. The mice were sacrificed and weights of their left parametrial fat pad, left tibialis anterior muscle, left posterior liver lobe, and spleen were also taken.

[3] = Body weight, food intake and adipose tissue in db/db mice; assay type: in vivo; settings: 4 mg/kg s.c.
Procedure: The db/db 7 week old mice were injected subcutaneously with 4 mg/kg antibody on a Monday, Wednesday, and Friday schedule with body weights being measured before each injection and on day 7. Food intake was monitored as well on days 1, 2, 3, 4, and 7. The db/db animals were sacrificed on day 7 and their intrascapular brown fat, epididymal white adipose tissue, and inguinal subcutaneous white adipose tissue were sampled and weighed.

[4] = Energy expenditure and body composition in C57 black mice (incl. paired-feeding); assay type: in vivo
Procedure: To elucidate the mechanism of the weight-loss induced by FGFR antagonistic antibodies, the effect of FR1-H7 on energy expenditure and body composition of mice was studied. […] A paired-feeding experiment was also conducted which food consumption of control antibody treated animals was restrained to exact that of FR1-H7 treated animals (FIG. 27). […] Moreover, body composition (Day 1 and 5) and energy consumption determined for the two groups were mostly indistinguishable.
This study consisted of two stages. In the first stage, female C57 black mice (Charles River Laboratories, Wilmington, Mass.) were randomized into two groups (n=16) and individually housed in a metabolic cage. Both groups of Mice were given hi-carbohydrate content chow and water ad libitum. […] Body composition was determined using NMR on Day 1 and Day 5. Body weight and food consumption were determined daily. Energy expenditure, ambulatory activities, and oxygen consumption and were monitored continuously. RER were calculated based on energy expenditure and oxygen consumption.
In the second stage, both groups of Mice were given water ad libitum, but only 2 g of hi-carbohydrate content chow each animal per day. The amount of food given was determined in the first stage experiment to be the averaged daily food assumption of those animals one day after being treated with FR1-H7 (10 mg/kg body weight, intraperitonaeally). […]

FGFR-1(IIIc) = FGFR-1(IIIc) (Homo sapiens, UniProt P11362); experiment: Cell-based blocking assay (125I-FGF-2 binding to FGFR-1(IIIc) expressing L6 cells); set-up: expressed in transfected cells; host or cells: L6 (ATCC), pBABE retroviral vector; settings: at 200 nM antibody
Procedure: An FGFR-1(IIIc) expressing cell line was constructed by retro-viral transfecting L6 (ATCC, Manassas, Va.) using a pBABE vector that has a puromycin resistant gene (Invitrogen). Transfected cells were cultured in 10% FBS, DMEM (Invitrogen) in 6-well tissue culture plates until reaching confluency, Before the blocking experiment, cells were serum starved for 8-24 hrs at 37° C. in DMEM medium that contains 0.1% FBS and 5 μg/ml heparin. Before the addition of any reagents, plates were put on ice for 1 hr to minimize receptor internalization. For binding experiment, iodinated recombinant FGF-2 was added at various concentrations to the wells of the plates. For blocking experiments, serially diluted FR1-H7 antibody was added and incubated with the cells on ice for 1 hr before iodinated recombinant FGF-2 was added to each well to a final concentration of 15 ng/ml. Binding was for 1 hr at 0-4° C., after which time the solutions were aspirated and the plates were washed 5 times with ice-cold PBS. Cells were lyzed with 0.5 ml ice-cold cell lysis buffer for 30 minutes. Radioactivity of the cell lysates was detected using a Wizard 1470 automatic gamma counter (Turku, Finland). Non-specific interaction was determined in a binding experiment in which iodinated FGF-2 was incubated with the cells in presence of 200 fold excess of cold ligand.

T4 sequence (P22607 23-806): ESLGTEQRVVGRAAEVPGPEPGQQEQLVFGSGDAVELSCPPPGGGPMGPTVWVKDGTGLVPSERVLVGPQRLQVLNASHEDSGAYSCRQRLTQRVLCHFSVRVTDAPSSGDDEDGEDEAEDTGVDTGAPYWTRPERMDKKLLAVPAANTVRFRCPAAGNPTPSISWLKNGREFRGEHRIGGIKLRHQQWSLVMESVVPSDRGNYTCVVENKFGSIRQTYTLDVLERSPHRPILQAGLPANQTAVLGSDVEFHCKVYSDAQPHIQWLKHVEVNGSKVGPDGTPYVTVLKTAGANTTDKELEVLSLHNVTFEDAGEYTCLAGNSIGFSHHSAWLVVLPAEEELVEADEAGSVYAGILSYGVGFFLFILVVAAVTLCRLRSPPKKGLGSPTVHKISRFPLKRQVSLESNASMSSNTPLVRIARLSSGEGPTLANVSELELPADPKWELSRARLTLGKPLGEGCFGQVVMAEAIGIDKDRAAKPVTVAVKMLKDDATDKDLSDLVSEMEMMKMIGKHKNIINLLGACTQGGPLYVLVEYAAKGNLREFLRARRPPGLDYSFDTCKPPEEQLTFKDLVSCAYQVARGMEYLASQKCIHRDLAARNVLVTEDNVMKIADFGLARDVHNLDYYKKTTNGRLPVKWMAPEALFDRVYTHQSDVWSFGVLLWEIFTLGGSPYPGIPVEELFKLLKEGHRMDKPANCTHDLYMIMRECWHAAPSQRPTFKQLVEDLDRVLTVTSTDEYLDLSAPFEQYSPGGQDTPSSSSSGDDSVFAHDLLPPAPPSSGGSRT
T3 sequence (P21802 22-821): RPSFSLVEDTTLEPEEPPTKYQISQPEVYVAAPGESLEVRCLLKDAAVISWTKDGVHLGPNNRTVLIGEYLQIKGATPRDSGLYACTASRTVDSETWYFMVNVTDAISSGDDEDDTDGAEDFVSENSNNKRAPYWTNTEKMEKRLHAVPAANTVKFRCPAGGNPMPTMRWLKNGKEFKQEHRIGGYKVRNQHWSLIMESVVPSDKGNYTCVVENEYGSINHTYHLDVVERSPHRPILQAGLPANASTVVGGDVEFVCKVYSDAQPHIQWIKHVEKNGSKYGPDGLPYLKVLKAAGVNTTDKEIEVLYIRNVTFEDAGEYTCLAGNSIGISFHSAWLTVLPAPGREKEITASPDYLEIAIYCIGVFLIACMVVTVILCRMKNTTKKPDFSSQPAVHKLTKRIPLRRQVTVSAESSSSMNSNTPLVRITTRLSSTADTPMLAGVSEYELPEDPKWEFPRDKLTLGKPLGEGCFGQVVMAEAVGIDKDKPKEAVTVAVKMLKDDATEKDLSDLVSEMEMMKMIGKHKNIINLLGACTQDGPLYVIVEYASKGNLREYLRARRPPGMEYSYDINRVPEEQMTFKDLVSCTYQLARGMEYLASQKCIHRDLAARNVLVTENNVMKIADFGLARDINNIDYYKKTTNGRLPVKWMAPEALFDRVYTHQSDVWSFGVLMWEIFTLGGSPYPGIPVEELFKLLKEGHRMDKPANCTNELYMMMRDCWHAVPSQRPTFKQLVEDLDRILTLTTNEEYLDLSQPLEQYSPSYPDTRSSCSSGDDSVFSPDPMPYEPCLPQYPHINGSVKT
T1 sequence (P11362 22-822): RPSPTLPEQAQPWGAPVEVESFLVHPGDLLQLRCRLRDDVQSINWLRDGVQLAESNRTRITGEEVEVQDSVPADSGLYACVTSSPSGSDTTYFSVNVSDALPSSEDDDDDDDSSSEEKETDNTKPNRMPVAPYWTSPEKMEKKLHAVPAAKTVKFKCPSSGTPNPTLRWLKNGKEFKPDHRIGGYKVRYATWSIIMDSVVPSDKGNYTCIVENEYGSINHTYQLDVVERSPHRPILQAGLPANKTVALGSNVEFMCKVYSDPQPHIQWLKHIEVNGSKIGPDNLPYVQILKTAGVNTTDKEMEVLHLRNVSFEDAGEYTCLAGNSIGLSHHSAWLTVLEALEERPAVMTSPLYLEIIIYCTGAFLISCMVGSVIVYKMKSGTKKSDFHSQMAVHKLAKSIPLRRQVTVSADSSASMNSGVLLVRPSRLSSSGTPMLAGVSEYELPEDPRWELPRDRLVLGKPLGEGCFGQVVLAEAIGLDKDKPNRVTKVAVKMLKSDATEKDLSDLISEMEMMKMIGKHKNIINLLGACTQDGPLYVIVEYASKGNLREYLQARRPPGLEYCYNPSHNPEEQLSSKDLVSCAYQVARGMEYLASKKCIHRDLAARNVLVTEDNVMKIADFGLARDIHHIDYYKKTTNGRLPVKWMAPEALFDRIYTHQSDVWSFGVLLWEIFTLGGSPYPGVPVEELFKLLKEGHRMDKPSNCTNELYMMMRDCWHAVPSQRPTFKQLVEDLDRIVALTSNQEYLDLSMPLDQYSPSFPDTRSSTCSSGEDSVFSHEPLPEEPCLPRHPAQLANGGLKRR
Sequence of FGFR-1(IIIc) (P11362 22-822): as above
T2 sequence (P21802 22-822 isoform P21802-3 limits assumed): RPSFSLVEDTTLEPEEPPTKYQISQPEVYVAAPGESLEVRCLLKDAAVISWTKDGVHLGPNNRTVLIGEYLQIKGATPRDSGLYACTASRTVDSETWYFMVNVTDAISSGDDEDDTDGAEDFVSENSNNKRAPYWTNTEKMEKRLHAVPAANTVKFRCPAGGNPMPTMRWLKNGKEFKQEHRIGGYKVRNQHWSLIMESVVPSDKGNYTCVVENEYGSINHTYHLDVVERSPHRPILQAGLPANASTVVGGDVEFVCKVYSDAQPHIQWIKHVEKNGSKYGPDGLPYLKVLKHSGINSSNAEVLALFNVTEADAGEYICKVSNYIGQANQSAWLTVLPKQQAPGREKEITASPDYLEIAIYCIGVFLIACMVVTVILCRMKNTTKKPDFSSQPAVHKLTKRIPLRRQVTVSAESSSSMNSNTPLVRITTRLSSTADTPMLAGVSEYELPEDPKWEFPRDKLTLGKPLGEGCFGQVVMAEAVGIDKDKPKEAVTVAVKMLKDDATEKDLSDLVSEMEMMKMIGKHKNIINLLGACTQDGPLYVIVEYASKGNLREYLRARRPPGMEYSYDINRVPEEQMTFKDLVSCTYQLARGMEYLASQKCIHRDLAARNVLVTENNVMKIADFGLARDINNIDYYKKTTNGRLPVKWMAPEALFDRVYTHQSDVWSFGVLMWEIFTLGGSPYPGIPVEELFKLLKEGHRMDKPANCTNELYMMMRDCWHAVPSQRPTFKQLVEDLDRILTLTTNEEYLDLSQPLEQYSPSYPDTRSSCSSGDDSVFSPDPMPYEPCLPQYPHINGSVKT

B1: FR1-H7: human monoclonal antibody from phage Fab library, specific for FGFR-1(IIIb) and/or FGFR-1(IIIc), and/or FGFR-4(IIIc); VH/VL SEQ ID NOS:7, 8 (antibody, listed as Homo sapiens)
VH: MAEVQLVQSGAEVKKPGASVKVSCKVSGYTFTDYYMHWVQQAPGKGLEWMGLVDPEDGETIYAEKFQGRVTITADTSTDTAYMELSSLRSEDTAVYYCARDDYMDVWGKGTLVTVSSASTKGP
VL: LETTLTQSPDTLSLSPGEGATLSCRASQSVSGSALAWYQQKPGQAPRLLIYDASSRATGVPDRFSGSGSGADFSLTISRLEPEDFAVYSCQQYGSSPLTFGPGTKVDVKRTVAAPSVFIFPPSDEQLKSGTASVVCLLNNFYPREAKVQWKVD
Kd (FGFR-1c): 0.04 nM
Kd (FGFR-2b): > 1000 nM
Kd (FGFR-2c): > 1000 nM
Kd (FGFR-3c): > 1000 nM
proliferation of HUVECs in vitro [1]: inhibited the proliferation of HUVECs in vitro in a dose-dependant manner
FGF-2-stimulated proliferation of adipocytes (human adipocytes): inhibited the FGF-2-stimulated proliferation of adipocytes in a dose dependant manner
serum insulin level ([2]; single 4 mg/kg): significantly reduced
serum leptin level ([2]; single 4 mg/kg): significantly reduced
serum triglycerides level ([2]; single 4 mg/kg): significantly reduced
reduction of averaged body weight compared to control groups ([2]; single 4 mg/kg s.c., 48 hours): approximately 6%
weight reduction of parametrial fat pad ([2]; single 4 mg/kg s.c., 48 hours): approximately 60%
weights of muscle, liver, and spleen ([2]; single 4 mg/kg s.c., 48 hours): appear to be normal
levels of ALT, CPK, BUN, total serum proteins, and serum albumin versus control ([2]; single 4 mg/kg, 48 hours): no significant differences
serum glucose level ([2]; single 4 mg/kg, 48 hours after treatment): did not affect
food intakes ([3]; 7-day period): gradual reduction
weight reduction of the total body weight ([3]; Day 7): approximately 10%
weight of intrascapular brown fat tissue ([3]; day 7): significant reduction
weights of epididymal white adipose tissue and inguinal subcutaneous white adipose tissue ([3]; day 7): changed little
body weight, food intake, muscle and fat mass, energy expenditure and Respiratory Exchange Ratio (RER) compared to the controls ([4]; 10 mg/kg i.p. Day 2 and Day 4, food ad libitum): decreases
weight loss versus pair-fed control antibody treated animals ([4]; 10 mg/kg i.p., paired-feeding, 5-day period): identical weight-loss trajectories
blocking of specific 125I-FGF-2 binding to the cells (FGFR-1(IIIc)): near completion
